From US20040204434A1, “Compounds and methods for lowering the abuse potential and extending the duration of action of a drug” (Controlled Chemicals Inc., priority 2003, published 2004)

Tests used:
[1] = Nonenzymatic hydrolysis of oxycodone ester prodrugs to oxycodone in buffered solution (HPLC); format: physicochemical; conditions: pH 7, 37° C.
Pancreatin = test: Effect of pancreatin on release of oxycodone from prodrugs; conditions: in words
[2] = Release of oxycodone from prodrugs without pancreatin; conditions: 37° C., pH 7.4, no pancreatin
μ (rat) opioid receptor [3] = molecular target: T1, μ (rat) opioid receptor (Rattus norvegicus, UniProt P33535); test: Inhibition of radio labeled ligand binding to membranes from C6 rat glioma cells expressing recombinant μ opioid receptor; conditions: in words
T1 construct: expressed in transfected cells; host or cells: C6 rat glioma cells (membranes)
T1 sequence (P33535 whole entry): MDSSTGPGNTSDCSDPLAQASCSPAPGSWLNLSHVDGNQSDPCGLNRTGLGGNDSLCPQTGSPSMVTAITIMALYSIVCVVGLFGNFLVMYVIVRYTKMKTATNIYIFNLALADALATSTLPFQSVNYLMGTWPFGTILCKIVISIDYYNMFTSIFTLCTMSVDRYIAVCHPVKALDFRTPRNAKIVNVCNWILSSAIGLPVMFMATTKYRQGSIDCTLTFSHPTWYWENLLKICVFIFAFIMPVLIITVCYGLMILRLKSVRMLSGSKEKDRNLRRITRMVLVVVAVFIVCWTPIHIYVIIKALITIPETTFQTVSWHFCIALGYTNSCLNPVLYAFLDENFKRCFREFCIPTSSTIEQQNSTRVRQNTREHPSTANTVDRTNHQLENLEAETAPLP
Procedure: (§1) Opioid-agonist activity was evaluated from the ability of the test article to stimulate [^35S]-GTP's binding.

μ (rat) opioid receptor [4] = molecular target: T1, μ (rat) opioid receptor; test: Opioid-agonist activity: stimulation of [35S]-GTP's binding; format: biochemical
Procedure: as §1

Compound: COc1ccc2c3c1OC1C(OC(C)=O)=CCC4(O)C(C2)N(C)CCC314 (stereo not shown) [6-enolacetate]
- half-life for hydrolysis [1]: ~96 h

Compound: poly(ethylene glycol), Mr 2,000, methyl ether, N-carbonylglutamic acid 1-(3-methoxy-14-hydroxy-6,7-didehydro-4,5α-epoxy-17-methylmorphinan-6-yl) ester [Compound 4]
- Effect of pancreatic enzymes on liberation of oxycodone from prodrug (Pancreatin): do not markedly effect
- Half-Life for Hydrolysis, no pancreatin [2]: 5.5 h

Compound: COc1ccc2c3c1O[C@H]1C(=O)CC[C@@]4(OC(C)=O)[C@@H](C2)N(C)CC[C@]314 [14-acetate ester of oxycodone]
- half-life for the hydrolysis [1]: ~0.333 h

Compound: poly(ethylene glycol), Mr 2,000, methyl ether, carboxy ((3-methoxy-14-hydroxy-6,7-didehydro-4,5α-epoxy-17-methylmorphinan-6-yl) ester) methyl ether [Compound 8]
- Effect of pancreatic enzymes on liberation of oxycodone from prodrug (Pancreatin): markedly enhanced
- Half-Life for Hydrolysis, no pancreatin [2]: 6.9 h

Compound: poly(ethylene glycol), Mr 2,000, methyl ether, carbonylimidodiacetic acid mono-(3-methoxy-14-hydroxy-6,7-didehydro-4,5α-epoxy-17-methylmorphinan-6-yl) ester [Compound 5]
- Effect of pancreatic enzymes on liberation of oxycodone from prodrug (Pancreatin): do not markedly effect
- Half-Life for Hydrolysis, no pancreatin [2]: 11 h

Compound: COc1ccc2c3c1O[C@H]1C(OC(=O)C(CCC(=O)O)NC(=O)OCc4ccccc4)=CC[C@@]4(O)[C@@H](C2)N(C)CC[C@]314 (stereo partly drawn) [Compound 1, 2-(benzyloxycarbonylamino)-pentanedioic acid 1-(3-methoxy-14-hydroxy-6,7-didehydro-4,5α-epoxy-17-methylmorphinan-6-yl) ester]
- affinity for the μ receptor relative to oxycodone (μ (rat) opioid receptor [3]): substantially lower
- EC50 (μ (rat) opioid receptor [4]): 3.38 ± 0.29 µM
